Reference: FireProtDB (doi:10.1021/bi001735j)
“And” between values parts separate entries of the source, which are not always exact repeats. Identical values can stand only once.

Details: Homo sapiens, pH 7, 25 °C, GdnHCl, CD, sodium cacodylate 50 mM, NaCl 50 mM, whole UniProt chain shown

B1: Alpha-lactalbumin wild type, P00709 (protein)
chain: MRFFVPLFLVGILFPAILAKQFTKCELSQLLKDIDGYGGIALPELICTMFHTSGYDTQAIVENNESTEYGLFQISNKLWCKSSQVPQSRNICDISCDKFLDDDITDDIMCAKKILDIKGIDYWLAHKALCTEKLEQWLCEKL
Q: With B1 as the protein, how does the denaturant m value (transition: 3) read?
A: The denaturant m value was 2.2 kcal/mol/M and 0.77 kcal/mol/M and 0.75 kcal/mol/M.

Q: What about the denaturant m value of the same protein?
A: The denaturant m value was 2.9 kcal/mol/M and 2.4 kcal/mol/M and 4.4 kcal/mol/M.

Q: And the unfolding free energy?
A: The unfolding free energy was 6.9 kcal/mol and 7.2 kcal/mol and 13.8 kcal/mol.
